We go through 14 sequences from the DeepSol protein solubility set.

This data set is described as follows: soluble on expression in E. coli; label from the status in PepcDB or PDB records.
“MLEQVCQLARNAGDAIMQVYDGAKPMEYARKQDDSPVTAADIAAHTVILEGLRTLTPDIPVLSEEDPPAWEVRQHWQRYWLVDPLDGTKEFIKRNGEFTVNIALIEQGKPVLGVVYAPVLKVMYYAAEGKAWKEECGVRKQIQVRDARPPLVVISRSHTDDELTEYLQQLGEHQTTSIGSSLKFCLVAEGQAQLYPRFGPTSVWDTAAGHAIAVAAGAHVHDWQGKTLDYTPRESFLNPGFRVTIY”: the “soluble on expression in E. coli” value was “not soluble”.

For the sequence “MSLQENPYQLVKDVEGIGFGKADELGSRMGLSGNHPERVKAAILYTLETTCLSEGHTYIETEQLIIDTQSLLNQSAREGQRITEMDAANAIIALGENKDIVIEDGRCYFPSLFYAEQNVAKRVKHIASQTEYENQFPESEFLLALGELEERMDVQYAPSQKEAIQKALSSPMLLLTGGPGTGKTTVIRGIVELYGELHGVSLDPSAYKKDEAFPIVLAAPTGRAAKRMSESTGLPAVTIHRLLGWNGAEGFTHTEDQPIEGKLLIIDEASMLDIWLANHLFKAIPDHIQIIIVGDEDQLPSVGPGQVLRDLLASQVIPTVRLTDIYRQAEGSSIVELAHQMKNGLLPNNLTAPTKDRSFIRCGGSQIKEVVEKVVANALKKGYTAKDIQVLAPMYRGKAGINELNVMLQDILNPPKEKRRELKFGDVVYRTGDKILQLVNQPENNVFNGDIGEITSIFYAKENTEKEDMAVVSFDGNEMTFTKKDFNQFTHAYCCSIHKSQGSEFPIVVLPVVKGYYRMLRRNLLYTAITRAKKFLILCGEEEALEWGVKNNDATVRQTSLKNRLSVQVEEGHHHHHH”, the “soluble on expression in E. coli” value was “soluble”.

Turning to “MSVQPETMPDSSNKTNPTVKEVIAYLADKFPLCFSIEGEAKPLKVGLSQDLAEALADDEKVSKTLLRQVLRSYTMSWRYLACCKANAQRIGLQGENVGIVDEAQAEHAAQSLAVAKEAYAARKAEQRKEQRKDFFKKKAREERNAKTMNKAVKKGSPKKDTFAKATAESLAVLTHKFSKGNK”, the “soluble on expression in E. coli” value is listed as “not soluble”.

Turning to “MEFEGCSGFRQRLVLSTLSGKPVKIRNIRSKDDNPGLRDFEASFIRMLDKLTNGTRIEINQTGTVLFYQPGLLYGGSVEHECNVQRSVGYYLEALLMLVPFMKTPIKAVLKGITNHPTDPSVDLLKVTAVPLMKRFGINGDGLEIKVVKRGMAPGGGGEVHFSCPVSRSMKPVQLTEAGKIKRIRGTAFSVRVSPQMANRIVDSARSILNKFIPDIYIYTDHMKGPNSGKSPGFGLGLVAETLNGVFLGAEVVSTPQGQGEMQLPEDLGRNCAKLLLEEIYRGGCVDSTNQSLALLYMTLGQQDVSKTLLGPLSPYTMDFLRHIRDFFQIMFKIETQKPSEDECKGGEKVLMTCVGAGYNNISKSIK”, the “soluble on expression in E. coli” value is recorded as “not soluble”.

In the case of “MSVNMDELRHQVMINQFVLAAGCAADQAKQLLQAAHWQFETALSTFFQETNIPNSHHHH”, the “soluble on expression in E. coli” value was “soluble”.

Take “MAHHHHHHMFHGFPDVQIAPRDTVISEEFHLHDKEGRMGTLLQPMAQRMRISFSALTCLGSYAQNATCHYALFGRLCGVQLNETIEVTNVLPPVINPRPPEDETPEQREKRLLAQQREERQMYERMGKMFFKEELDSYHVGYFAICSAYTNAPYSVRTVQQLAQLALDGNPSVLVVYDPFRTSLMGKLYLRAFVPTREYVEFYTRLTDKRNILRENRLMRECNVGKGGVLREVKVEVDVDEYQLLCLSGFNVAPLSSTCRTLHSEVMTDYMAALIESVRHNADELSRGLHSESYFSQKEESYGPLGQRIDTLLKLMQLREQTQHLESLCDGVLLNTSLLRDL”: the “soluble on expression in E. coli” value is given as “soluble”.

“MMSYALVLAGNRLITSGALGTNAAAIRGAMRADPNLLTVILPQSLERQPRESRQQLDKVMHLVEKPENDHLPLAEASSLCNQEIIARCQQLICFAFHDSHTLLQTCELAEEQHKVVTLFYFDLEHHHHHH”: the “soluble on expression in E. coli” value was “not soluble”.

With “MKRIRLWGLMAGLLLLLVGCGRAETTGVTKPVTTQGHRYIPTLFFHGWGSSYHAETHMADAIVKAGKTQTIVRAMVAKNGTVTLKGHFRSGDYRPIVEVNFANNRSSDYPTVGRWAKNVVVALQRTYGITSFNMVGHSMGNMAITYYLLANAQNKRLPQLRQQVAIAGHFNGILGMDDSPNQMTLNAAGRPNKLRPAYRQLLGLRRVYPRQQVRVLNIYGDKGDGTHSDGSVSNASSRSLRYLVAARARSYREVKLTGKHAQHSQLHENAQVDRLLIDFLWPTH”, the “soluble on expression in E. coli” value was “not soluble”.

Consider “MIFSVDKVRADFPVLSREVNGLPLAYLDSAASAQKPSQVIDAEAEFYRHGYAAVHRGIHTLSAQATEKMENVRKRASLFINARSAEELVFVRGTTEGINLVANSWGNSNVRAGDNIIISQMEHHANIVPWQMLCARVGAELRVIPLNPDGTLQLETLPTLFDEKTRLLAITHVSNVLGTENPLAEMITLAHQHGAKVLVDGAQAVMHHPVDVQALDCDFYVFSGHKLYGPTGIGILYVKEALLQEMPPWEGGGSMIATVSLSEGTTWTKAPWRFEAGTPNTGGIIGLGAALEYVSALGLNNIAEYEQNLMHYALSQLESVPDLTLYGPQNRLGVIAFNLGKHHAYDVGSFLDNYGIAVRTGHHCAMPLMAYYNVPAMCRASLAMYNTHEEVDRLVTGLQRIHRLLG”, for which the “soluble on expression in E. coli” value is listed as “soluble”.

In the case of “AQPDIKFASKEYGVTIGESRIIYPLDAAGVMVSVKNTQDYPVLIQSRIYDENKEKESEDPFVVTPPLFRLDAKQQNSLRIAQAGGVFPRDKESLKWLCVKGIPPKDEDIWVDDATNKQKFNPDKDVGVFVQFAINNCIKLLVRPNELKGTPIQFAENLSWKVDGGKLIAENPSPFYMNIGELTFGGKSIPSHYIPPKSTWAFDLPKGLAGARNVSWRIINDQGGLDRLYSKNVTL”, the “soluble on expression in E. coli” value is “soluble”.

As for “MTYKYNCCDDGSGTTVGSVVRFDNVTLLIDPGWNPSKVSYEQCIKYWEKVIPEIDVIILSQPTIECLGAHSLLYYNFTSHFISRIQVYATLPVINLGRVSTIDSYASAGVIGPYDTNKLDLEDIEISFDHIVPLKYSQLVDLRSRYDGLTLLAYNAGVCPGGSIWCISTYSEKLVYAKRWNHTRDNILNAASILDATGKPLSTLMRPSAIITTLDRFGSSQPFKKRSKIFKDTLKKGLSSDGSVIIPVDMSGKFLDLFTQVHELLFESTKINAHTQVPVLILSYARGRTLTYAKSMLEWLSPSLLKTWENRNNTSPFEIGSRIKIIAPNELSKYPGSKICFVSEVGALINEVIIKVGNSEKTTLILTKPSFECASSLDKILEIVEQDERNWKTFPEDGKSFLCDNYISIDTIKEEPLSKEETEAFKVQLKEKKRDRNKKILLVKRESKKLANGNAIIDDTNGERAMRNQDILVENVNGVPPIDHIMGGDEDDDEEEENDNLLNLLKDNSEKSAAKKNTEVPVDIIIQPSAASKHKMFPFNPAKIKKDDYGTVVDFTMFLPDDSDNVNQNSRKRPLKDGAKTTSPVNEEDNKNEEEDGYNMSDPISKRSKHRASRYSGFSGTGEAENFDNLDYLKIDKTLSKRTISTVNVQLKCSVVILNLQSLVDQRSASIIWPSLKSRKIVLSAPKQIQNEEITAKLIKKNIEVVNMPLNKIVEFS”, the “soluble on expression in E. coli” value is listed as “soluble”.

As to “MGSDKIHHHHHHMHLGKYIKKYRDTNNLSMAEFAKESGISKAYVSILEKNRDPRNGKEIIPSIPIIKKVSDTIGISFDDLLNSLDENQIVALNETKTEKNLTSSTLQKITSTSSQLEQPRQEKVLSFANEQLEEQNKVVSMFDRKVEETENYITDYVEGLVAAGLGAYQEDNLHMEVKLRADDVPDKYDTIAKVAGNSMEPLIQDNDLLFVKVSSQVDMNDIGIFQVNGKNFVKKLKRDYDGAWYLQSLNKSYEEIYLSENDNIRTIGEVVDIYREN”, the “soluble on expression in E. coli” value was “not soluble”.

For the sequence “MEKLKEFRGIKEHLGVFREAVKDAERIGFAGVPGVCTPFAQLFAYAVRDKDNIFIPNTDFSKARKLEVTEYGVELGEISPGNVDVLVLLGGLSMPGIGSDIEDVKKLVEDALEEGGELMGLCYMDMFARAGWYELLDFDCVINADIDGYVLRG”, the “soluble on expression in E. coli” value is on record as “soluble”.

On to “MGSDKIHHHHHHMIDLHCHILSGIDDGAQTITDSLAMAQQAVAEGIHTIVATPHHQNGKYVNERASIIHQVKQLNDELQQHEIPLKVLPGQEVRLYGGLLEDYEAGKIVTLNETNKYIFIEFPSNHVPRYTEQLFYELRVKGMIPIIVHPERNAELIERPDKLYNLVNKGALTQVTAGSLLGKFGKKIKRFSLQLVEHNLTHMIASDAHNTTSRGFHLEESYELIEKEFGTTVMNDLRENPYLIISGKAIYKEDPEQIRRKKLFGIF”, for which the “soluble on expression in E. coli” value is on record as “not soluble”.
